{
  "source": "paper PMC5867903",
  "binders": {"B1": {"name": "800-G-Abz4-t-BBN (peptide)", "peptide": "GQWAVGHLM", "modifications": "IRDye800 (800CW) on the N-terminus; 4-aminobenzoyl (Abz4) between the linker G and Q; C-terminal amide"}},
  "target": "mouse serum proteins (serum protein binding assay) (mouse)",
  "assay": "ultrafiltration of serum",
  "data": [
    {"binder": "B1", "values": [
      {"measurement": "percent serum protein bound", "value": "> 90", "unit": "%"}
    ]}
  ]
}
